In paper PMC4873976, “Structural basis for haem piracy from host haemopexin by Haemophilus influenzae” (Nature Communications, 2016):

Molecular target: T1, Haemopexin (Oryctolagus cuniculus, UniProt P20058)
T1 chain: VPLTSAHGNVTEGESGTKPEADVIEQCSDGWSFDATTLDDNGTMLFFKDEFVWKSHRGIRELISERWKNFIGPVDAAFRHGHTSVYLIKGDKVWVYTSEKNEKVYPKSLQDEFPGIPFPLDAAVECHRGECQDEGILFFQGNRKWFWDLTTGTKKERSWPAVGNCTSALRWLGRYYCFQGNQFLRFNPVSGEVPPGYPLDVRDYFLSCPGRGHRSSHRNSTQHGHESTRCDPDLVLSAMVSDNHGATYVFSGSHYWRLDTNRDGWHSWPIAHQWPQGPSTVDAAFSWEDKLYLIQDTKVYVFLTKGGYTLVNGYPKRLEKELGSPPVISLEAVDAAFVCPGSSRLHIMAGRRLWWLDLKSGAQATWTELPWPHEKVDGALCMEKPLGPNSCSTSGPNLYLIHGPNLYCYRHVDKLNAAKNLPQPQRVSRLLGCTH
Test: ITC; given as Ka

B1: HxuA (protein)
chain: STQGLPQQGLPQQGLPQEDKVVVGQATFDKTIADKMTINQTSDKVQINWHSFDIGQNKEVEFKQPSENSVAYNRVTGGNASQIQGKLTANGKVYLANPNGVIITKGAEINVAGLLATTKDLEQISENSNSYQFTRKTKDRQVVKEGQVINEGEIKAKDFVVLNGDEVINKGNINVEKNSTINGKVYLSSGYNFTFTLSDSGISVALEDNTVRGIVQNEGSIKAGEITLSAKGRKEALDSLVMNNGVLEATKVSNRNGKVVLSADNVQLNNESNIKGEIVNFGTEVTSNEDKKLKITSKTGSKVTSPKINFKGKSVNINGNFGRENSGTHYNEERKTLNTEVNIDVPGAENIRIADDKDNTETDSFIQTEALSSLLANNGKVNLKGNDVNISGNINIDSFRGTDSLLKLTNQGHINIDHADINSKGRLFVVTSLQNDVDFKSNITITDSKINLGNGAMGLGRSVNEDDYATRWKRAEKSQRKKFNVDMRNVVFNQVDEVILAGGFEKVNLDKIVATGQTNFYIDGGVSRNNSRYEYGVLDLDYRTQLSELEQGRRRWRYYRDLDLDMNKAYLYRFDLFAKNNSGRSTIKGTEINISNSNINLKNGFVHLLAENIKLDNSKVDITFDKDNSQDTLAQTNRLGMNGKVSMINSHIKIVGDEKEGISPTGTYATMFLIGELIGEKSSIFVKSHQGYTFKTDGDTKIAGKNSKEDLKITAINTGGRAAEEVLINGALGSADNDANIANMAFTIGDSANTKTTIENADITALAPNGGTAYLSSKDVEIEVKPNSNFTFFELPREKNLNQTKINGASTKLSERGFARLYDKINGVRASNLSAEQLNVTDASEKIINTKLVSSLDVEKLVSVAVCDAGNGCEEQQFGDKGNNTKVSVGELEAEQ
For B1, the Kd was under 1 nM.
